T1: collagen type III (Homo sapiens, UniProt P02461)
T1 sequence (P02461 154-1221 limits assumed): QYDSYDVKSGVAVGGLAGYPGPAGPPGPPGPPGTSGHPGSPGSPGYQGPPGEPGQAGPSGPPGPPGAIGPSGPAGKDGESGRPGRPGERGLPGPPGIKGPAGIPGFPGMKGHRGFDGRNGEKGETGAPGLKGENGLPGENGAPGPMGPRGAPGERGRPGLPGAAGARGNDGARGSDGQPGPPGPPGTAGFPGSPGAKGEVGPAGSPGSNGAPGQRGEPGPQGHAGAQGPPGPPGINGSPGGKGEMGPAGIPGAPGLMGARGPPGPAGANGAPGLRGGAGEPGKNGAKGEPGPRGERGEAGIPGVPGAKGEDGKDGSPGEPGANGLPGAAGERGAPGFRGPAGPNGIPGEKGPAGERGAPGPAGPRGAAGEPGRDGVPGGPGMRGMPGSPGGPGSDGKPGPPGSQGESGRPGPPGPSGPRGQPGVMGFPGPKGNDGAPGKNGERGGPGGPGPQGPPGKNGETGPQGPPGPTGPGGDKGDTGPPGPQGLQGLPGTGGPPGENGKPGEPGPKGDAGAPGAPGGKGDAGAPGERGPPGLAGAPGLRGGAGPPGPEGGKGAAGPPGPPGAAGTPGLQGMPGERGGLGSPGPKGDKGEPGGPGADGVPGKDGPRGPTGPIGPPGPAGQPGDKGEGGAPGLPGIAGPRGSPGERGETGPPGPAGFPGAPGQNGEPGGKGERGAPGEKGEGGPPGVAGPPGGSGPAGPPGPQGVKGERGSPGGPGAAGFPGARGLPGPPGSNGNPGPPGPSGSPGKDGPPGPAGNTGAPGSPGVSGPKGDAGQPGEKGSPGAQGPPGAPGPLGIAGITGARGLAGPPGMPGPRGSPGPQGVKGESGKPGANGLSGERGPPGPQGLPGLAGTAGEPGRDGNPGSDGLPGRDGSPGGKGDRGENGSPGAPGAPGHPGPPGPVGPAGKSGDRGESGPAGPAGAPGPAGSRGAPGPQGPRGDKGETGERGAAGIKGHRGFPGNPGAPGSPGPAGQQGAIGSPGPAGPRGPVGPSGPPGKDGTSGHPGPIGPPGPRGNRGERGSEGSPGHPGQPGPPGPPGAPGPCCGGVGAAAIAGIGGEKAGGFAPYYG

T2: human collagen type III (Sigma) (human, UniProt P02461 154-1221, limits assumed)
T2 construct: Purified natural collagen immobilised on the chip (331 RU); also called Collagen type III (human)
T2 sequence (looked up): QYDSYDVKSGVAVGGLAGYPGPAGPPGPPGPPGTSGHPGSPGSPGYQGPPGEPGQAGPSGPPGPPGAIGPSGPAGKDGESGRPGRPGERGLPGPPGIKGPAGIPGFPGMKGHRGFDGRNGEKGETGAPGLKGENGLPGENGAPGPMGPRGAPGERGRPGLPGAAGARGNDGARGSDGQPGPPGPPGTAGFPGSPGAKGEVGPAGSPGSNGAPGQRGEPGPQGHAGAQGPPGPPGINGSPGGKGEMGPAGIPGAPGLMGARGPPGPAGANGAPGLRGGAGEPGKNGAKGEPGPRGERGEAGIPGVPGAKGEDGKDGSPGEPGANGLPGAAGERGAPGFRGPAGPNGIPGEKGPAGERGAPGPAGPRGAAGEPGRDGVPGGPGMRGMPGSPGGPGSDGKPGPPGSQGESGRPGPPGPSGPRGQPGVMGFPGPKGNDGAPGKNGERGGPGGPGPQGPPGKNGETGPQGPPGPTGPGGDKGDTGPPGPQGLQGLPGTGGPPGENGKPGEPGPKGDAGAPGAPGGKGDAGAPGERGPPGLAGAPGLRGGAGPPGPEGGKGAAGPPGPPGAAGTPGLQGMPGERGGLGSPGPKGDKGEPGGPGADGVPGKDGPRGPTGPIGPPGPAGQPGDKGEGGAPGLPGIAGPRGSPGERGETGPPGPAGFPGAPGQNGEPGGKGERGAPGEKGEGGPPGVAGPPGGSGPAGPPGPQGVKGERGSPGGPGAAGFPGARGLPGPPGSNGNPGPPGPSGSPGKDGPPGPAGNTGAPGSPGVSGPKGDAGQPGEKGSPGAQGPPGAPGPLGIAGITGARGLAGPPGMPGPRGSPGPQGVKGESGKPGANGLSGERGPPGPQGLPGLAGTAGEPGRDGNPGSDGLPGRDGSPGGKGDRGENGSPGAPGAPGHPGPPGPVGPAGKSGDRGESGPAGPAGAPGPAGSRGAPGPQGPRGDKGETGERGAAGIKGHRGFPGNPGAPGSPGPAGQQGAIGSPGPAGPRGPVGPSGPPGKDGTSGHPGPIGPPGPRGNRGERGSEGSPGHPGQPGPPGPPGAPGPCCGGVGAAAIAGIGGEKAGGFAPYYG


Tests used:
human platelets = test: Collagen-induced platelet aggregation, determined turbidometrically; type: cell-based; details: GPVI-Fc added prior to collagen, 10 μg/ml collagen, FIG. 6
Description: Platelet aggregation is turbidometrically determined after the addition of 10 μg/ml collagen (control) and in the presence of different GPVI-Fc concentrations. Data are shown as means (n=4).
The therapeutic relevance for GPVI-antagonists to prevent collagen-induced thromboembolic complications is shown by a GPVI-Fc titration curve (FIG. 6). Briefly, stimulation of human platelets with collagen induces an aggregation within minutes. […] Therefore, collagen trapped by GPVI-Fc is no longer able to induce an aggregation of platelets. Considering the therapeutic relevance of GPVI receptor antagonism the following conclusion can be drawn from the results presented above: • (i) GPVI-Fc itself can be used as a drug to prevent collagen-induced thromboembolic complications. • (ii) Antagonism of the platelet GPVI receptor by low molecular drugs should prevent the collagen-induced aggregation.

collagen type III [1] = biological target: T1, collagen type III; test: ELISA: GPVI-Fc binding at collagen-coated microtiter plates; details: HEPES binding buffer pH 7.4, FIG. 4
From the text: GPVI-Fc, solved in HEPES buffer (pH 7.4) containing 1% BSA and 0.05% Tween 20, was allowed to bind at collagen-coated microtiter plates. The amount of collagen-bound GPVI-Fc was calorimetrically detected by an anti-Fc antibody conjugated with horse radish peroxidase. Non-specific binding was estimated by a collagen non-specific Fc fusion protein applied instead of GPVI-Fc. Data shown as mean (n=2).
In principle, collagen coated microtiter plates are used as a matrix and GPVI-Fc as the ligand. The detection of bound GPVI-Fc is carried out by an anti-Fc antibody conjugated with horse radish peroxidase which binds specifically at the Fc moiety. After addition of peroxidase substrate, the amount of bound GPVI-Fc is reflected by an increase in absorption.
The polystyrol microtiterplates are coated with 50 μl of 20 μg/ml collagen type III suspended in TRIS buffered saline pH 8.0 for 12 h. Non-bound collagen is removed by washing. Afterwards, free protein binding sites are blocked by 5% (w/v) milk powder and 0.05% (v/v) Tween® 20 both solved in HEPES buffer (pH 7.4).
GPVI-Fc, in a concentration range of 0.1-100 nM, is solved in binding buffer (HEPES, 1% (w/v) bovine serum albumin, 0.05% (v/v) Tween® 20, pH 7.4). […]
Fifty μl of GPVI-Fc solution are given into each well. […] Finally, the amount of bound GPVI-Fc is calorimetrically detected by the peroxidase reaction.

[2] = biological target: T2, human collagen type III (Sigma); test: SPR equilibrium analysis, assuming 75000 Da and fully active protein
Description: (§1) Protein interactions were identified and characterized by SPR technology using the BIAcore® 3000 instrument (BIAcore®, Freiburg, Germany) and methodology (Johnsson and Lindqvist, 1992; Johnsson et al., 1991). Coupling reagents were used according to protocols developed by the supplier. Coupling to the CM 5 sensor chip was done via activated carboxylate groups to free amine groups of human collagen type III (Sigma®). The pH-scouting and the coupling chemistry was performed under standard conditions (Johnsson and Lindqvist, 1992; Johnsson et al., 1991). For coupling the collagen was diluted to 0.125 µg/ml into 10 mM acetate buffer pH 4.5, resulting in 331 RU immobilized material.
(§2) For the binding experiments purified recombinant glycoprotein VI was used. The protein was diluted into 20 mM Hepes, pH 7.4, 150 mM NaCl, 5 mM EDTA, 0.005% Tween® 20. All binding experiments were performed at 25° C. and performed in duplicates.

collagen type III [3] = biological target: T1, collagen type III; test: Binding of GPVI to collagen type III measured by surface plasmon resonance (BIAcore 3000); parameters: purchased Sigma
From the text: The known interaction of GPVI to Collagen was used to develop a binding test with the BIAcore 3000. The binding of proteins to immobilized ligands can be monitored using the phenomenon of surface plasmon resonance (SPR). This technique can give results regarding the affinity and kinetics of interacting molecules in solution.
In this assay human collagen type III was immobilized on the sensor surface as stated in the methods and purified soluble GPVI was passed over the collagen surface.
as §1, with “μg/ml” for “µg/ml”
as §2
The titration with glycoprotein VI was performed at concentrations ranging from 0.2 μg/ml to 50 μg/ml.
Total protein concentrations were determined by the BCA method (Pierce) The kinetic of the interaction of GPVI with collagen can be observed in the sensorgram seen in FIG. 7. In the experiment increasing concentrations of purified GPVI were passed over the collagen type III surface.

[4] = biological target: T2, human collagen type III (Sigma); test: SPR, BIAcore 3000, collagen type III immobilised, GPVI in solution, 25 C
Description: as §1, §2

| concentration at which collagen-binding sites are completely occupied (saturation curve) (collagen type III [1]) | Kd [2] | dissociation rate constant from the collagen surface (collagen type III [3]; 25° C.) | time until binding reaches saturation (collagen type III [3]; 25° C., GPVI 0.2-50 μg/ml) | half maximal concentration of saturation for the GPVI/collagen interaction (collagen type III [3]; equilibrium binding signal, non linear fit, 1:1 binding model, FIG. 8) | koff [4] | Molecule | suppression of collagen-induced platelet aggregation (human platelets) |
| --- | --- | --- | --- | --- | --- | --- | --- |
| above 100 nM | – | – | – | – | – | GPVI-Fc: Fusion of extracellular part of GPVI (aa 21 to 269), Cys-Gly-Arg linker and Fc of IgG1, encoded in KL74A | concentration-dependent reduction of platelet-aggregation |
| – | ~120 nM | 0.003 s⁻¹ | about 200 seconds | 9 µg/mL | 0.003 s⁻¹ | purified recombinant glycoprotein VI (receptor, UniProt Q9HCN6 21-269, looked up, also called GPVI; purified soluble GPVI) QSGPLPKPSLQALPSSLVPLEKPVTLRCQGPPGVDLYRLEKLSSSRYQDQAVLFIPAMKRSLAGRYRCSYQNGSLWSLPSDQLELVATGVFAKPSLSAQPGPAVSSGGDVTLQCQTRYGFDQFALYKEGDPAPYKNPERWYRASFPIITVTAAHSGTYRCYSFSSRDPYLWSAPSDPLELVVTGTSVTPSRLPTEPPSPVAEFSEATAELTVSFTNEVFTTETSRSITASPKESDSPAGPARQYYTKGN | – |
